The source of these data is US20170246252A1.

The experiment has as its target endogenous mIL-10 receptors (R1 and R2) on MC/9 mouse mast cells (mouse) (UniProt Q61727). Briefly: cell-based or functional assay.
Sequence of UniProt Q61727 (Q61727 17-575, chain 1 of 2): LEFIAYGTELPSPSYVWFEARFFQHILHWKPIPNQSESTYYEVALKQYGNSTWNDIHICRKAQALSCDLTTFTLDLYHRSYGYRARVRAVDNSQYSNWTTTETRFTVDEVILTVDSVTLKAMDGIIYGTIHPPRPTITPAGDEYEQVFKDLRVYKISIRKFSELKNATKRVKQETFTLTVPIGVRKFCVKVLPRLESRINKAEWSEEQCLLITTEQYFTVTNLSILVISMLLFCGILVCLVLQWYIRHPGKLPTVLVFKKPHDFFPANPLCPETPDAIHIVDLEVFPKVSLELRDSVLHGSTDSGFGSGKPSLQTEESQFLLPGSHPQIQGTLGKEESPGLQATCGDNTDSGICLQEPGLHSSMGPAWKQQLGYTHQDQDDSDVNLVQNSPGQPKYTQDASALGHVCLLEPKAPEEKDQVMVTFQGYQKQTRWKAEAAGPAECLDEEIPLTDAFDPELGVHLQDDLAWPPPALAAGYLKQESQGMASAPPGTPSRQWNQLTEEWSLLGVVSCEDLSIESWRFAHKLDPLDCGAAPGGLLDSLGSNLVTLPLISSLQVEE
Sequence of UniProt Q61727 (Q61190 20-349, chain 2 of 2, further chain): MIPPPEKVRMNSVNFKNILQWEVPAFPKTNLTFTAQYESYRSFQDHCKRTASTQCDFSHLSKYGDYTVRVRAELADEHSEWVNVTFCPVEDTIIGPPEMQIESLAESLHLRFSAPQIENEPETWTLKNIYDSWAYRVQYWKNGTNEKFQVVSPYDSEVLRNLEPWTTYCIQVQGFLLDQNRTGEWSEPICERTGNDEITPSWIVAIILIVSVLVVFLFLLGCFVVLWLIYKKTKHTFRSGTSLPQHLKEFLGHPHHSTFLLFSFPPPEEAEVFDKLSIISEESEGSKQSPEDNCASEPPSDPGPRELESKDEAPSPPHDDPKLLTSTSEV

In the case of “Murine IL-10 (from UniProt P18893 19-178) (ligand)”, the EC50 (ng/mL) in MC/9 Assay (proliferation with mIL-4 co-stimulation, Alamar Blue) is 0.571 ng/mL.

As for “PEG-mIL-10 (from UniProt P18893 19-178) (ligand)”, the EC50 (ng/mL) in MC/9 Assay (proliferation with mIL-4 co-stimulation, Alamar Blue) came out at 4.04 ng/mL and the specific activity in the MC/9 bioassay relative to mIL-10 turned out to be 7 fold lower.
